# Source: patent US20090155205A1
# How the values were obtained:
# [1] = biological target: recombinant human TNFα (rhTNFα) (human) (UniProt P01375); experiment: cell-based or functional assay
# [2] = biological target: recombinant human TNFα (rhTNFα) (human) (UniProt P01375); experiment: SPR BIAcore, summary table
# [3] = biological target: recombinant human TNFα (rhTNFα) (human) (UniProt P01375); experiment: SPR BIAcore, biotin-rhTNFα immobilized, Ab 3 nM
# [4] = biological target: recombinant human TNFα (rhTNFα) (human) (UniProt P01375); experiment: SPR BIAcore, biotin-rhTNFα immobilized, Ab 6 nM
# [5] = biological target: recombinant human TNFα (rhTNFα) (human) (UniProt P01375); experiment: SPR BIAcore, biotin-rhTNFα immobilized, Ab 13 nM
# [6] = biological target: recombinant human TNFα (rhTNFα) (human) (UniProt P01375); experiment: SPR BIAcore, biotin-rhTNFα immobilized, Ab 25 nM
# [7] = biological target: recombinant human TNFα (rhTNFα) (human) (UniProt P01375); experiment: SPR BIAcore, biotin-rhTNFα immobilized, Ab 50 nM
# [8] = biological target: recombinant human TNFα (rhTNFα) (human) (UniProt P01375); experiment: SPR BIAcore, biotin-rhTNFα immobilized, Ab 100 nM
# [9] = biological target: recombinant human TNFα (rhTNFα) (human) (UniProt P01375); experiment: SPR BIAcore, biotin-rhTNFα immobilized, Ab 200 nM
# [10] = biological target: recombinant human TNFα (rhTNFα) (human) (UniProt P01375); experiment: SPR BIAcore, biotin-rhTNFα immobilized, Ab 400 nM
# [11] = biological target: recombinant human TNFα (rhTNFα) (human) (UniProt P01375); experiment: SPR BIAcore, biotin-rhTNFα immobilized, average of the series
# Sequence of recombinant human TNFα (rhTNFα) (human) (P01375 77-233 limits assumed): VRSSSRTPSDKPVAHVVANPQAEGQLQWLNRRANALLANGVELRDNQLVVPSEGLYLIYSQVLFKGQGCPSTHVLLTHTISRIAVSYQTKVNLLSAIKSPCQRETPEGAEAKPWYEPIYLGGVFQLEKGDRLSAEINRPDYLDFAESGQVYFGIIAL
substance,measurement,setting,value
MAK 195 F(ab′)2,"IC50, neutralization of TNFα-induced L929 cytotoxicity",[1],0.062 nM
same,Kd,[2],0.46 nM
same,Stoichiometry,[2],1.4
same,koff,[2],8.7e-05 s⁻¹
same,kon,[2],190000 M⁻¹ s⁻¹
same,"Ab, bound, RUs",[3],231 RUs
same,koff,[3],6.95e-05 s⁻¹
same,rhTNFα/Ab,[3],0.26
same,"Ab, bound, RUs",[4],433 RUs
same,koff,[4],7.37e-05 s⁻¹
same,rhTNFα/Ab,[4],0.47
same,"Ab, bound, RUs",[5],708 RUs
same,koff,[5],3.66e-05 s⁻¹
same,rhTNFα/Ab,[5],0.78
same,"Ab, bound, RUs",[6],957 RUs
same,koff,[6],4.41e-05 s⁻¹
same,rhTNFα/Ab,[6],1.09
same,"Ab, bound, RUs",[7],1110 RUs
same,koff,[7],3.67e-05 s⁻¹
same,rhTNFα/Ab,[7],1.32
same,"Ab, bound, RUs",[8],1140 RUs
same,koff,[8],3.54e-05 s⁻¹
same,rhTNFα/Ab,[8],1.39
same,"Ab, bound, RUs",[9],1080 RUs
same,koff,[9],4.54e-05 s⁻¹
same,rhTNFα/Ab,[9],1.38
same,"Ab, bound, RUs",[10],881 RUs
same,koff,[10],5.38e-05 s⁻¹
same,rhTNFα/Ab,[10],1.2
same,koff,[11],4.94e-05 s⁻¹
